The results in this text go back to PMC2817712, “Using Structural Information to Change the Phosphotransfer Specificity of a Two-Component Chemotaxis Signalling Complex” (PLoS Biology, 2010).

Usually Kd stands for the equilibrium constant for the complex coming apart.

Substitutions are numbered along the chain they refer to. Names may count otherwise. Some results are limits rather than exact numbers.

For the assay, the target named is T1, CheA3P1, the isolated P1 (Hpt, histidine-containing phosphotransfer) domain of CheA3 (residues 1-135), … (R. sphaeroides).
T1 construct: Analyte in SPR and partner in the unphosphorylated crystal structure; also called Hpt domain of CheA3
Briefly: SPR; Biacore T100, 25°C; response regulator biotinylated in a C-terminal tag and held on streptavidin (200-1,500 RU); CheA3P1 injected at 120 nM to 2 mM; standard buffer (30 mM Hepes pH 7.5, 150 mM NaCl, 5 mM sodium acetate, 2 mM manganese chloride, 2 mM TCEP) with 0.05% Tween 20; equilibrium binding, 1:1 Langmuir model. The conditions noted are these: both partners purified. Background: In SPR one partner is held on a chip, and binding of the other changes the refractive index at the surface.

B1: CheY6(M13S) with an engineered C-terminal biotinylation tag, for SPR surfaces (natural protein)
chain: PYNVMIVDDAASMRLYIASFIKTLPDFKVVAQAANGQEALDKLAAQPNVDLILLDIEMPVMDGMEFLRHAKLKTRAKICMLSSVAVSGSPHAARARELGADGVVAKPSGTVSHDLEEKTGGELARTMRTLMAA
modifications: biotin within the engineered C-terminal tag (enzymatic)
B1 displayed a Kd above 1000 µM.

B2: CheY6(M13S,L16S,Y17M) with an engineered C-terminal biotinylation tag, for SPR surfaces (natural protein)
chain: B1 chain with L15S, Y16M
modifications: biotin within the engineered C-terminal tag (enzymatic)
Molecule B2 yielded a dissociation constant Kd above 1000 µM.
